The target in this data set is T1, VPA0041-His (Vibrio parahaemolyticus RIMD 2210633) (UniProt Q87K57).
T1 sequence: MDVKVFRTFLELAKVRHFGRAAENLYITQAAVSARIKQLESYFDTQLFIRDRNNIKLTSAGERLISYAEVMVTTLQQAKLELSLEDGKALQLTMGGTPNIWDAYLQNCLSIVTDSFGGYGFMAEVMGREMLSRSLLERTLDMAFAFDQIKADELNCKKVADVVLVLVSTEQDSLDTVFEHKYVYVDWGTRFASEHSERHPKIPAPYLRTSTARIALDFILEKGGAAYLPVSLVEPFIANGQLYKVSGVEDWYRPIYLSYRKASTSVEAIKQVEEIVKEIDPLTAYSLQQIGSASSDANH
Put plainly: EMSA. To be noted: EMSA: 20 uL, 10 ng probe (15 ng in Fig 5 legend), 1 ug poly(dI:dC), 4 uL 5x binding buffer (10 mM NaCl, 0.1 mM DTT, 0.1 mM EDTA, 10 mM Tris, pH 7.4), 25 C …. For orientation: A gel shift assay detects complexes by their altered migration in electrophoresis.
As to “CATCTTAGTCTCCTTAGTTTATCACTATTTCTTTCAGGCCTTGGGATATTCCCTAGTCACTAACTAGAGGCGGTCGCTTGCCACTAATGATTAATTTGAAAATTAAAAATTTTCTAAAAAAGATCAAAATTGATGATTTTTAGTGACTTGCATTCCACTAAGTTGGGGTTTGCTACCGTTTTAGCGTTAGTTTCCGATGTGCTTTGATCGGCATCGTCGACCTGCAGGCA (double strand) [vpa1548 promoter (promoter-1)]”, the binding entry is “binds”.
In the case of “CATGCATCTTTCCTTACAGTCGGCTCGAATACGCCAAGATACAAACAAGATACATCGTCGACCTGCAGGCA (double strand) [vpa0264 promoter-3]” it was “no binding”; in that of “TGCCTGCAGGTCGACGATAGACATACTTTCAAGGCATAGAGTTACGCCAATTACCAATGAGAGAGGGAGTAAGCTCGTG (double strand) [vpa1550 promoter-4]”, “binds”.
In the case of “TGCCTGCAGGTCGACGATCAAGTCAATGTTTTAAAAGAATATTCAAGTTAGGCACGTATCTTGCGATAAGACATACTTTCAAGGCATAGAGTTACGCCAATTACCAATGAGAGAGGGAGTAAGCTCGTG (double strand) [vpa1550 promoter-3]” it was “binds”; in that of “TGCCTGCAGGTCGACGATGGAACACATAAGGTGGAAAATACACTTCCTCTCAAATTTAAATAGTATCGCAAGTCAATGTTTTAAAAGAATATTCAAGTTAGGCACGTATCTTGCGATAAGACATACTTTCAAGGCATAGAGTTACGCCAATTACCAATGAGAGAGGGAGTAAGCTCGTG (double strand) [vpa1550 promoter-2]”, “binds”.
In the case of “TGCCTGCAGGTCGACGATGTTTGTCCTGTCGAAAGAATTCCTAATAACAGTATCCACTTTGAGGAAATTAGAGTTTTCCCCCTAATTTTTTTGCTTTCCGTAAACCGGAAGTTTGGTTTCCACTCTTGTTTGTAAGTCATTGATAAATATAAATAAAATTTATGGCACGTATCTTGTTTGTATCTTGGCGTATTCGAGCCGACTGTAAGGAAAGATGCATG (double strand) [vpa0264 promoter]”, the binding result is given as “binds”.
Then “TGCCTGCAGGTCGACGATTAGAGTTTTCCCCCTAATTTTTTTGCTTTCCGTAAACCGGAAGTTTGGTTTCCACTCTTGTTTGTAAGTCATTGATAAATATAAATAAAATTTATGGCACGTATCTTGTTTGTATCTTGGCGTATTCGAGCCGACTGTAAGGAAAGATGCATG (double strand) [vpa0264 promoter-1]”, with “binds”.
For the sequence “TGCCTGCAGGTCGACGATTCCACTCTTGTTTGTAAGTCATTGATAAATATAAATAAAATTTATGGCACGTATCTTGTTTGTATCTTGGCGTATTCGAGCCGACTGTAAGGAAAGATGCATG (double strand) [vpa0264 promoter-2]”, the binding entry is reported as “binds”.
Then “TGCCTGCAGGTCGACGATTTAGTCGCCTTGTCTTATAGGGAAACACTAGATGTTTTCGAGAGGAAGGCGGAACACATAAGGTGGAAAATACACTTCCTCTCAAATTTAAATAGTATCGCAAGTCAATGTTTTAAAAGAATATTCAAGTTAGGCACGTATCTTGCGATAAGACATACTTTCAAGGCATAGAGTTACGCCAATTACCAATGAGAGAGGGAGTAAGCTCGTG (double strand) [vpa1550 promoter (promoter-1)]”, with “binds”.
